The values that follow come from publication PMC6644000 (Cell, 2019).

The target of this test is T1, REV1 C-terminal domain (CTD) (mouse, UniProt Q920Q2 1150-1249).
T1 sequence (looked up): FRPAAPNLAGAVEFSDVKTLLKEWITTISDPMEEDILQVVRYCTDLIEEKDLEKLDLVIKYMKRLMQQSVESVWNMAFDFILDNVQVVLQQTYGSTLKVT
Put plainly: crystal structure.

On to KSFFDKKRSERISN (domain or fragment, mouse, UniProt Q9QUG2 564-577, looked up) [POL κ RIR (REV1-interacting region) peptide], for which the binding result is “binds”.
